Test results published in publication PMC10099707.

Molecular target: HDAC4 (mouse (endogenous in hippocampal tissue)) (UniProt Q6NZM9)
Test: co-IP

UniProt Q6NZM9, sequence (Q6NZM9 whole entry): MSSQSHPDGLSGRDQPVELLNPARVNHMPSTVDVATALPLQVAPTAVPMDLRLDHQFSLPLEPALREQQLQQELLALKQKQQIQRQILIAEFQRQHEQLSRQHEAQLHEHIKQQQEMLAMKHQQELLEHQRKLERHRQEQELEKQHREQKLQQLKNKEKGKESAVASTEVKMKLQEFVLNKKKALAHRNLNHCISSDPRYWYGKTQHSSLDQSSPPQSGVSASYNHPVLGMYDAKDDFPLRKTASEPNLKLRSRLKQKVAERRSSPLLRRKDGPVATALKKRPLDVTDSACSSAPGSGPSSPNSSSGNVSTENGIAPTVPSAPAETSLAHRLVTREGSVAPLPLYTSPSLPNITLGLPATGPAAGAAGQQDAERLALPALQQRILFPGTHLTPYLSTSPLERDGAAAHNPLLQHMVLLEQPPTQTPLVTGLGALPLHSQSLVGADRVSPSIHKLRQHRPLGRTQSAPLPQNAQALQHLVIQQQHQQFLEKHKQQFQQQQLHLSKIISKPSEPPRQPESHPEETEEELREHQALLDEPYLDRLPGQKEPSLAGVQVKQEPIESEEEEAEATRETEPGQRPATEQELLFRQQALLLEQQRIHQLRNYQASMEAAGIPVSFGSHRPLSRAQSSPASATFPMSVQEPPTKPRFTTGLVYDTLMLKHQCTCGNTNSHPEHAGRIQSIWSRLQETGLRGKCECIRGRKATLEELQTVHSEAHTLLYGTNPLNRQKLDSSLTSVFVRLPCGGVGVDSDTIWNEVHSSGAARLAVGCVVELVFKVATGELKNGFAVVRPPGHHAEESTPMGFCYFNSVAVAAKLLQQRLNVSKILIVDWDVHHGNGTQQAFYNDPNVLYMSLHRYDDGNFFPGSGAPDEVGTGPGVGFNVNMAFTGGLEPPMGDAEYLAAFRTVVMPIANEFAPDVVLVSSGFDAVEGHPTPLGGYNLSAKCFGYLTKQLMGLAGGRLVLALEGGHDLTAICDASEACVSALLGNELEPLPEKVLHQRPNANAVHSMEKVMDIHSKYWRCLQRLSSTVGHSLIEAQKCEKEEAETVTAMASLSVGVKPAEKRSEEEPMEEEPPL

fold change AD vs WT of the co-IP band ratio CaMKII/HDAC4 (fold (AD vs WT)): 0.61
Substance: Ca2+/calmodulin‐dependent protein kinase II (CaMKII) (from UniProt P11798 1-478) (enzyme)
